Assay results reported in US20230287143A1 (published 2023).

T1: recombinant human BCMA-ECD-Fc fusion protein (ACRO Biosystems, #BC7-H82F0), biotinylated (human, UniProt Q02223 1-54, biotinylated with EZ-Link Sulfo-NHS-LC-Biotin (sites not given))
T1 construct: extracellular domain; Bought protein; also called biotinylated BCMA
T1 sequence (looked up): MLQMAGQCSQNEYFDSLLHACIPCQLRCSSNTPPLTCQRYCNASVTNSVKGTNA

B1: Anti-CTLA4 heavy-chain antibody CL5v3 (antibody, human IgG1, V domains shown)
VH: EVQLVESGGGLIQPGGSLRLSCAVSGFTVSKNYMSWVRQAPGKGLEWVSVVYSGGSKTYADSVKGRFTISRDNSKNTLYLQMNSLRAEDTAVYYCARAVPHSPSSFDIWGQGTMVTVSS
notes: Fully human heavy-chain-only antibody (HCAb), no light chain; also called PR000184
B2: PR000701, PD-L1×4-1BB bispecific binding protein with the FIT-Ig structure (structure 5) (bispecific antibody, human IgG4 S228P, kappa)
chain 1: not shown
chain 2: EVQLVESGGGLVQPGGSLRLSCAASGFTFSSYWMSWVRQAPGKGLEWVANIKQEGSEKYYVDSVKGRFTISRDNAKNSLYLQMNSLRAEDTAVYYCARDRAVAGAFDIWGQGTMVTVSSASTKGPSVFPLAPSSKSTSGGTAALGCLVKDYFPEPVTVSWNSGALTSGVHTFPAVLQSSGLYSLSSVVTVPSSSLGTQTYICNVNHKPSNTKVDKKVEPKSC
light: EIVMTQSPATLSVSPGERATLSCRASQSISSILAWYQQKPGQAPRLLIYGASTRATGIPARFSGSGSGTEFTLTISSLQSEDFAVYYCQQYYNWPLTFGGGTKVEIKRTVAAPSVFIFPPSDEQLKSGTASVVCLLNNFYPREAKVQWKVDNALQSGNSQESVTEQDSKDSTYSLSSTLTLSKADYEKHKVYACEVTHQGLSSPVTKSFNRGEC
notes: FIT-Ig, symmetric tetravalent, three different chains; PD-L1 Fab of PR000265, 4-1BB Fab of PR000197 close to Fc; human IgG4
B3: PR005744, BCMA×BCMA bispecific binding protein with the Fab-HCAb structure (structure 1) (bispecific antibody, human IgG1, kappa)
chain 1: QVQLVESGGGVVQPGRSLRLSCAATGFTFSSYGMYWVRQAPGKGLEWVAAIWNDGSNNYYADSVKGRFTISRDDSKNTLNLQMNSLRAEDTAMYYCARDRLPMASLRYFDWLGVMDAWGQGTSVTVSSASTKGPSVFPLAPSSKSTSGGTAALGCLVKDYFPEPVTVSWNSGALTSGVHTFPAVLQSSGLYSLSSVVTVPSSSLGTQTYICNVNHKPSNTKVDKKVEPKSC
chain 2: not shown
notes: no first linker; human IgG1 hinge and Fc
B4: PR004268, PD-L1×4-1BB bispecific binding protein with the VH-IgG structure (structure 4) (bispecific antibody)
light: DIQMTQSPSTLSASVGDRVTVTCRASQSIYIWLAWYQQKPGKAPNLLIYKASSLETGVPSRFSGSGSGTEFTLTISSLQPDDFATYYCQQYYGSSRTFGQGTKVEIKRTVAAPSVFIFPPSDEQLKSGTASVVCLLNNFYPREAKVQWKVDNALQSGNSQESVTEQDSKDSTYSLSSTLTLSKADYEKHKVYACEVTHQGLSSPVTKSFNRGEC
heavy: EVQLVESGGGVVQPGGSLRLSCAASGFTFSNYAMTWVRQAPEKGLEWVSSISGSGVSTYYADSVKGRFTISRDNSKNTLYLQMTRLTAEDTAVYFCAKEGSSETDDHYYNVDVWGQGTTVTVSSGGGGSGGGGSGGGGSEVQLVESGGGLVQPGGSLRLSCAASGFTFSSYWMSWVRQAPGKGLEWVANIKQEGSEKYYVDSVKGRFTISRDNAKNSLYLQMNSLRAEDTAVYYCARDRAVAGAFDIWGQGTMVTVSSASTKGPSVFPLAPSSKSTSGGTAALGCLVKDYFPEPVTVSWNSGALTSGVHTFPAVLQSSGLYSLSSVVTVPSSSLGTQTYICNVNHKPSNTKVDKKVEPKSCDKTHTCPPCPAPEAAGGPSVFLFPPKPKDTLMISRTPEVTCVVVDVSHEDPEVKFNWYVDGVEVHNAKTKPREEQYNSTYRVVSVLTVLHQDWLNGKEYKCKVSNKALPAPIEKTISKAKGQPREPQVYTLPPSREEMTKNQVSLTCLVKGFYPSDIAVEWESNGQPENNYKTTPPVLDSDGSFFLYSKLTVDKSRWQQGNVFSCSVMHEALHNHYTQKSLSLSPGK
notes: 4-1BB VH (PR001760) at the N-terminus of the heavy chain of PD-L1 IgG (PR000265); linker GS_15; human IgG1 (LALA)
B5: Anti-BCMA heavy-chain antibody PR001046_R2_4G10 (antibody, human IgG1, V domains shown)
VH: EVQLVETGGGLIQPGGSLRLSCAASGFTVSDSYMTWVRQAPGKGLEWVSVIFSGGRTYYSDSVKGRFTISRDNAKNTLYLQMNSLRAEDTALYYCARRNYDDTRGTDVFDIWGQGTMVTVSS
notes: Fully human heavy-chain-only antibody (HCAb), bivalent, no light chain; also called PR004433

Assays:
human CTLA4 = molecular target: T2, human CTLA4 (human, UniProt P16410 36-223); assay: flow cytometry on CHO-K1/hCTLA4 cells
T2 construct: whole, on cells; also called CD152; CHO-K1/hCTLA4
Procedure: (§1) The cells were incubated at 4° C. for 1 h away from light. […] Then, the cells in each well were then rinsed twice with 200 μL of pre-cooled FACS buffer and centrifuged at 500 g at 4° C. for 5 min, and then the supernatant was discarded. Finally, a pre-cooled FACS buffer was added at 200 μL/well to resuspend the cells.

human PD-L1 = molecular target: T3, human PD-L1 (human, UniProt Q9NZQ7 19-290); assay: flow cytometry on CHO-K1/hPD-L1 cells
T3 construct: whole, on cells; also called CD274; B7-H1
Procedure: as §1

human 4-1BB = molecular target: T4, human 4-1BB (human, UniProt Q07011 24-255); assay: flow cytometry on CHO-K1/hu 4-1BB cells
T4 construct: whole, on cells; also called CD137; TNFRSF9
Procedure: as §1, with “Specifically, the cells were digested and resuspended in a complete medium, and the cell density was adjusted to 2×10⁶ cells/mL. […] The cells” for “The cells”

[1] = molecular target: T1, recombinant human BCMA-ECD-Fc fusion …; assay: BLI (Octet Red96e), biotinylated BCMA-ECD-Fc on SA sensor, binding protein 10-2.5 nM in solution, 1:1 global fitting
Procedure: In this example, the binding kinetics between the BCMA binding protein and BCMA were analyzed by the Biolayer Interferometry (BLI) technique using an Octet molecular interaction analyzer (ForteBio, Octet Red96e).
Two columns of SA sensors (8 sensors in each column; with the sensors in the first column referred to as the reference SA sensor and the sensors in the second column referred to as the test SA sensor) were firstly equilibrated in the equilibration buffer for 10 min. Then, the biotinylated BCMA were captured by test SA sensors with a capture height of 0.2 nm, and the reference SA sensors were immersed in the buffer for 30 s. The two arrays of sensors were combined with the test BCMA-binding protein at concentrations obtained by a two-fold dilution from 10 nM to 2.5 nM and a concentration of 0 nM. The sensors were combined with the test proteins for 180 s and then dissociated for 800 s.
When data analysis was performed using Octet Data Analysis software (Fortebio, version 11.0), the reference signals were subtracted by a double reference mode; the data were fitted by a “1:1 Global fitting” method, and the kinetic parameters of the binding of the antigen to the antigen-binding protein were calculated to obtain kₒₙ (1/Ms) values, kdis (1/s) values and KD (M) values.

T3 sequence (Q9NZQ7 19-290): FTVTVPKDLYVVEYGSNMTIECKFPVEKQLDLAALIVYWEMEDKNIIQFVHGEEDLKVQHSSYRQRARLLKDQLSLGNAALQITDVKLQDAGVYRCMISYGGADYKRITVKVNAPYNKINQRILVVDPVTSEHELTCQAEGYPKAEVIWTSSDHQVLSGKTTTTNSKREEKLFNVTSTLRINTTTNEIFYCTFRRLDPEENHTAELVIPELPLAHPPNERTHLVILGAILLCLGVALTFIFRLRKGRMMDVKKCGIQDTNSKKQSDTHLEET
T4 sequence (Q07011 24-255): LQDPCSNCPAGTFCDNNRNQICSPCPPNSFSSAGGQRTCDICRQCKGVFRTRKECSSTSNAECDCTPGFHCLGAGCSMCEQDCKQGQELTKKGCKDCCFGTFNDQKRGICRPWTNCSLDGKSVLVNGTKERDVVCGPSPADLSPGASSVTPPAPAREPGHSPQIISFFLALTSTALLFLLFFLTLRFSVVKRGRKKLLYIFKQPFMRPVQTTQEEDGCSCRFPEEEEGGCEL
T2 sequence (P16410 36-223): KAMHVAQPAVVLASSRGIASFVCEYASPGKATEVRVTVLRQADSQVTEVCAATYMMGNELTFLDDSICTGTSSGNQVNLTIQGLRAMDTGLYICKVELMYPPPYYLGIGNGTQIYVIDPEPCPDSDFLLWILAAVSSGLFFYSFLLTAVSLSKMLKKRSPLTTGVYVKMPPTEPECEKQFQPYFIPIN

Binder	binding result (human PD-L1)	Kd [1] [nM]	koff [1] [s⁻¹]	kon [1] [M⁻¹ s⁻¹]	other results
B1					binding result (human CTLA4): binds
B2	binds				binding result (human 4-1BB): binds
B3		0.0279	4.87e-05	1.75e+06	
B4	binds				
B5		0.0792	7.16e-05	904000	
